T1: Murine CTGF (Mus musculus, UniProt P29268)
T1 construct: purchased Abbexa
T1 sequence (P29268 26-348): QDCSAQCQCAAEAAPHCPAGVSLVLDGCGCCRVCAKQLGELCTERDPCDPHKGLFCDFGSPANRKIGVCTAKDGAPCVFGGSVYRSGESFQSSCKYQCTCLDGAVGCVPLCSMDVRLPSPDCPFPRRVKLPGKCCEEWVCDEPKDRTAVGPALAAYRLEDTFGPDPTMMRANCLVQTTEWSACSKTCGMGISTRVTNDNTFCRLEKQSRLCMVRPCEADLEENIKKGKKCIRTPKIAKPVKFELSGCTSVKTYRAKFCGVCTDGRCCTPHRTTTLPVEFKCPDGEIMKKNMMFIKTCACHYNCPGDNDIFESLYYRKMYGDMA

T2: Rat CTGF (Rattus norvegicus, UniProt Q9R1E9)
T2 construct: purchased R&D Systems
T2 sequence (Q9R1E9 25-347): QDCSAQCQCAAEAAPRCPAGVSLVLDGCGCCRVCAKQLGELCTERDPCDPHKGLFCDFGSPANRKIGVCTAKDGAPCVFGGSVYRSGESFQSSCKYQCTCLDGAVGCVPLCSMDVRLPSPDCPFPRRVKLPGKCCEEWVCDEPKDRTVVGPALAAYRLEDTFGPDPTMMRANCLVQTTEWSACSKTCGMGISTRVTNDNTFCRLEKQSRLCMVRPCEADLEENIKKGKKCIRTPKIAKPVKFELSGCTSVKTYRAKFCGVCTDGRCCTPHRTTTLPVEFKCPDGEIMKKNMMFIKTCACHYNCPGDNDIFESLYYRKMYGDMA

B1: SEQ ID NO: 31: optimized CTGF-binding hNGAL lipocalin mutein (protein)
chain: QDSTSDLIPAPPLSKVPLQQNFQDNQFQGKWYVVGWAGNVKLREDKQPQKMSATIYELKEDKSYDVTEVVFEQKKCHYIIKTFVPGSQPGEFTAGDIKSPPGYTSSLVRVVSTNYNQHAMVFFKKVSQNREFFWITLYGRTKELTSELKENFIRFSKSLGLPENHIVFPVPIDQCIDG
modifications: lipocalin mutein
B2: SEQ ID NO: 36: optimized CTGF-binding hNGAL lipocalin mutein (protein)
chain: QDSTSDLIPAPPLSKVPLQQNFQDNQFQGKWYVVGWAGNVKLREDKQPAKMSATIYELKEDKSYDVTEVVFEQKKCHYIIKTFVPGSQPGEFTAGDIKSPPGYTSSLVRVVSTNYNQHAMVFFKKVGQNREFFWITLYGRTKELTSELKENFIRFSKSLGLPENHIVFPVPIDQCIDG
modifications: lipocalin mutein

Tests used:
[1] = Thermal stability assessment by nanoDSC; assay type: physicochemical; details: 1 mg/mL in PBS, scan 25-100° C. at 1° C./min; for TM: major transition
In short: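 CTGF-specific lipocalin muteins at 1 mg/mL in PBS scanned from 25 to 100° C at 1° C/min by capillary nano-DSC. Where several transitions occur, the Tm of the major unfolding event is reported, along with onset temperature. Some muteins were expressed in E. coli, others in CHO cells.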

human CTGF [2] = molecular target: T3, human CTGF (Homo sapiens, UniProt P29279); experiment: SPR binding kinetics and affinity, human CTGF; details: 25° C., 1:1 binding model
T3 construct: purchased Creative Biomart
T3 sequence (P29279 with tags, fused parts or gaps H83D): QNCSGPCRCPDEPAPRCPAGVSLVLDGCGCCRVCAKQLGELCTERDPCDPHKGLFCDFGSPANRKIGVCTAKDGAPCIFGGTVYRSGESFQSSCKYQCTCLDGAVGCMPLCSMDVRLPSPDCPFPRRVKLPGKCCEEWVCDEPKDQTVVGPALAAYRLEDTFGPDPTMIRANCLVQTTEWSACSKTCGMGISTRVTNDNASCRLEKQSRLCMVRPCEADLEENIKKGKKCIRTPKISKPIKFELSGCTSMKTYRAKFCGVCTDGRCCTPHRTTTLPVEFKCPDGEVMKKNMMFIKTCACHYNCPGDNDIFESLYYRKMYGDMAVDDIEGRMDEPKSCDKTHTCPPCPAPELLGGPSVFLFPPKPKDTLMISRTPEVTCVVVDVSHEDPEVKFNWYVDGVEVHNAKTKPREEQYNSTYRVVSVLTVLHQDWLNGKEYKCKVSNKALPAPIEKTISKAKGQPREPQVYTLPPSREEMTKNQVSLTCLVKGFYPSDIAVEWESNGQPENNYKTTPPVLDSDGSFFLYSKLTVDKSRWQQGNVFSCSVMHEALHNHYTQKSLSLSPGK
Method: (§1) Surface plasmon resonance (SPR) was used to measure binding kinetics and affinity of the representative lipocalin muteins disclosed herein.
(§2) The binding of exemplary lipocalin muteins to human (Creative Biomart), cynomolgus, rat (R&D Systems) and mouse CTGF (Abbexa) was determined by SPR using a Biacore instrument (Cytiva, formerly GE Healthcare). Some targets were fused to a human IgG1 Fc tag, and captured via the anti-human IgG antibody kit, others were directly immobilized.
(§3) For some measurements, human CTGF with a human IgG1 Fc Tag or rat or murine CTGF without a tag were directly immobilized to a CM5 Chip. The carboxyl groups on the chip were activated using 1-ethyl-3-(3-dimethylaminopropyl)-carbodiimide (EDC) and N-hydroxysuccinimide (NHS). Subsequently, the targets at a concentration of 3-5 μg/mL in 10 mM sodium acetate (pH) 4.5 were applied at a flow rate of 10 μL/min until an immobilization level of 300-1100 resonance units was achieved. Residual non-reacted NHS-esters were blocked by passing a solution of 1 M ethanolamine across the surface. The reference channel was activated/deactivated. For the capture setting, targets with an IgG Fc Tag at 0.25-2.5 μg/mL in HBS-EP+ buffer were captured by the anti-human IgG-Fc antibody at the chip surface for 180 s at a flow rate of 10 μL/min.
(§4) The binding assay was carried out with a contact time of 180 s, a dissociation time of 900-3600 s and a flow rate of 30 μL/min. All measurements were performed at 25° C. […] For the directly immobilized targets, the same regeneration conditions were used. Prior to the protein measurements, three startup cycles were performed for conditioning purposes. Data were evaluated with Biacore Evaluation software. Double referencing was used and the 1:1 binding model was used to fit the raw data.

human CTGF [3] = molecular target: T4, human CTGF (Homo sapiens, UniProt P29279, H83D); experiment: SPR binding kinetics and affinity, human CTGF; details: 25° C., 1:1 binding model
T4 construct: purchased Creative Biomart
T4 sequence (P29279 with tags, fused parts or gaps H83D): as above
Method: as §1, §2, §3, §4

cynomolgus CTGF = experiment: SPR binding kinetics and affinity, cynomolgus CTGF; details: 25° C., 1:1 binding model
Chain of cynomolgus CTGF (as listed by the source): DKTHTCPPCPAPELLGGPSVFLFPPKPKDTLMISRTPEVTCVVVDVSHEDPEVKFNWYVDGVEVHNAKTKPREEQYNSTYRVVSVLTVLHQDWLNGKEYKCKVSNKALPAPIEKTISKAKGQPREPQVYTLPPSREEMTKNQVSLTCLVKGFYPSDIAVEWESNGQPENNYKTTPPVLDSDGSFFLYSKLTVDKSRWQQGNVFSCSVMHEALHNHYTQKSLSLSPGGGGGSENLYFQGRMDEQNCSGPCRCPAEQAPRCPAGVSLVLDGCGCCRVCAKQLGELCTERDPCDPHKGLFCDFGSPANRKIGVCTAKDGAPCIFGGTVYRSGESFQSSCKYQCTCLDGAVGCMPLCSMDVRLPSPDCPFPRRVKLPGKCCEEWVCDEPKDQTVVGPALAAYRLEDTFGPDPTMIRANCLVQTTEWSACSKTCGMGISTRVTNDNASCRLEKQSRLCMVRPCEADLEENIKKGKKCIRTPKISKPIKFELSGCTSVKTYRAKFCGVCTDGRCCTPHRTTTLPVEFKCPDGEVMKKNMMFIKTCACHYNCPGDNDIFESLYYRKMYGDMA
Method: as §1, §2, §3, §4
(§5) The values determined for kon, koff and the resulting equilibrium dissociation constant (KD) for exemplary lipocalin muteins are summarized in Table 4.

Murine CTGF = molecular target: T1, Murine CTGF; experiment: SPR binding kinetics and affinity, murine CTGF; details: 25° C., 1:1 binding model
Method: as §1, §2, §3, §4, §5

Rat CTGF = molecular target: T2, Rat CTGF; experiment: SPR binding kinetics and affinity, rat CTGF; details: 25° C., 1:1 binding model
Method: as §1, §2, §3, §4, §5

Molecule	ONSET MELTING [1]	TM [1]	human CTGF koff (human CTGF [2])	human CTGF kon (human CTGF [3])	cynomolgus CTGF koff (cynomolgus CTGF)	cynomolgus CTGF kon (cynomolgus CTGF)	Murine CTGF koff (Murine CTGF)	Murine CTGF kon (Murine CTGF)	Rat CTGF koff (Rat CTGF)	Rat CTGF kon (Rat CTGF)
B1	59 °C	75 °C	4.85e-05 s⁻¹	195000 M⁻¹ s⁻¹	7.31e-05 s⁻¹	162000 M⁻¹ s⁻¹	0.000444 s⁻¹	281000 M⁻¹ s⁻¹	0.000423 s⁻¹	223000 M⁻¹ s⁻¹
B2	58 °C	73 °C	6.95e-05 s⁻¹	165000 M⁻¹ s⁻¹	9.77e-05 s⁻¹	141000 M⁻¹ s⁻¹	0.00052 s⁻¹	310000 M⁻¹ s⁻¹	–	–
